From publication PMC6747193

Molecular target: C1QBP Recombinant Human Protein (gC1q-R) (human) (UniProt Q07021)
Experiment: ELISA; solid-phase microplate competition: gC1q-R coated on wells; polyclonal antibodies against gC1q-R amino acids 76-104 or 221-249 added at 4 µg/mL 1 h before idInlB at 0.4 µg/mL; idInlB without antibodies as positive control; bound idInlB detected with anti-His polyclonal antibody

Chain of UniProt Q07021 (Q07021 74-282): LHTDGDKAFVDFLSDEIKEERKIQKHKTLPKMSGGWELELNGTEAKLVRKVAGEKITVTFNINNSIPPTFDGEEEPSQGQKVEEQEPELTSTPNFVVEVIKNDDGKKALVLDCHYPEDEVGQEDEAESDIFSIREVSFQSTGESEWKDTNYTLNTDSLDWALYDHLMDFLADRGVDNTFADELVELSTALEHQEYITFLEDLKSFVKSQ

InlB internalin domain isoform idInlB9 (lineage I, from L. monocytogenes strain VIMHA015) (from UniProt P0DQD2 36-321) (domain or fragment)
fold decrease of binding with the antibody against gC1q-R amino acids 76-104, against idInlB9 without antibody: 1.6 fold
fold decrease of binding with the antibody against gC1q-R amino acids 221-249, against idInlB9 without antibody: 1.25 fold
